Patent US20240327530A1 (ICHNOS SCIENCES, published 2024)

How the values were obtained:
[1] = molecular target: T1, Recombinant cynomolgus monkey IL-1RAP-ECD(S21-E359)-avi-his protein (cynomolgus monkey, UniProt P59822 21-359 (rhesus entry)); test: SPR, IgG1 LALA captured by anti-human Fc, cyno IL-1RAP-avi-his as analyte, 1:1 fit
T1 construct: also called cyno IL-1RAP-ECD-Avi-His; recombinant cynomolgus monkey IL-1RAP-avi-his protein
T1 sequence: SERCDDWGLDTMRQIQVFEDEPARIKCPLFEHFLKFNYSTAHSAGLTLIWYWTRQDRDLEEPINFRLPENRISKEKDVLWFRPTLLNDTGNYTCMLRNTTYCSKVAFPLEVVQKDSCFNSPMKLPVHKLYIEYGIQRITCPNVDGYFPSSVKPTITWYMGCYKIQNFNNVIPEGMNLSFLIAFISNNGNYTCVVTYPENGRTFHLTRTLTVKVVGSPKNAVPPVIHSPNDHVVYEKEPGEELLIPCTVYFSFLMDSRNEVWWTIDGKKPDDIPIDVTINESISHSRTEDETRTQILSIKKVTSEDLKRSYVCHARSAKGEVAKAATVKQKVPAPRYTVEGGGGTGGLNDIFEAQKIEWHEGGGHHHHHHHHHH
Method: Surface plasmon resonance (SPR) was used to measure the binding affinities of the human IgG1 LALA molecules for human and cynomolgus monkey IL-1RAP. Affinities were measured on a BIACORE™ T200 instrument (BIACORE™, GE […]®) at 25° C. and analyzed with the BIACORE™ T200 Evaluation Software (v3.1). Measurements were performed on Series S CM5 sensor chips (BIACORE™ T200, BIACORE™, GE […]®, catalog no. BR100530) coupled with anti-human IgG Fc (BIACORE™, GE […]®, catalog no. BR100839) using a commercial amine coupling kit (BIACORE™, GE […]®, catalog no. BR100050). SPR measurements were performed with recombinant human IL-1RAP-avi-his protein produced in house (SEQ ID NO. 1) or recombinant cynomolgus monkey IL-1RAP-avi-his protein produced in house (SEQ ID NO. 2). The affinities to human and cynomolgus monkey IL-1RAP were assessed by immobilizing anti-IL-1RAP IgG1 LALA molecules and using IL-1RAP proteins as analyte. Around 150 RU of human IgG1 LALA were captured on fc2 of a Series S CM5 sensor chip coupled with anti-human IgG Fc. Recombinant human IL-1RAP-avi-his protein or recombinant cynomolgus monkey IL-1RAP-avi-his protein was injected in multi cycle kinetic at different concentrations ranging from 0.14 to 100 nM, in HBS-EP+ buffer (BIACORE™, GE […]®, catalog no. BR100669) at a flow rate of 30 μl/min for 3 min on fc1 and fc2 (fc1 being used as reference). Dissociation was monitored for 12 min. After each cycle, the surface was regenerated with 60 μl of regeneration solution provided with anti-human IgG Fc capture kit (BIACORE™, GE […]®, catalog no. BR100839). Experimental data were processed using the 1:1 Langmuir kinetic fitting model. Measurements included zero-concentration samples for referencing. Chi², U- and residual values were used to evaluate the quality of a fit between the experimental data and individual binding models.

[2] = molecular target: T2, Mouse IL-1RAP, membrane-bound on NIH-3T3 cells (mouse, UniProt Q61730 21-570); test: flow cytometry on NIH-3T3 cells, PE-Cyanine7 secondary antibody, relative mean fluorescence intensity (isotype subtracted); upper of two curves
T2 construct: Endogenous protein on cells
T2 sequence (looked up): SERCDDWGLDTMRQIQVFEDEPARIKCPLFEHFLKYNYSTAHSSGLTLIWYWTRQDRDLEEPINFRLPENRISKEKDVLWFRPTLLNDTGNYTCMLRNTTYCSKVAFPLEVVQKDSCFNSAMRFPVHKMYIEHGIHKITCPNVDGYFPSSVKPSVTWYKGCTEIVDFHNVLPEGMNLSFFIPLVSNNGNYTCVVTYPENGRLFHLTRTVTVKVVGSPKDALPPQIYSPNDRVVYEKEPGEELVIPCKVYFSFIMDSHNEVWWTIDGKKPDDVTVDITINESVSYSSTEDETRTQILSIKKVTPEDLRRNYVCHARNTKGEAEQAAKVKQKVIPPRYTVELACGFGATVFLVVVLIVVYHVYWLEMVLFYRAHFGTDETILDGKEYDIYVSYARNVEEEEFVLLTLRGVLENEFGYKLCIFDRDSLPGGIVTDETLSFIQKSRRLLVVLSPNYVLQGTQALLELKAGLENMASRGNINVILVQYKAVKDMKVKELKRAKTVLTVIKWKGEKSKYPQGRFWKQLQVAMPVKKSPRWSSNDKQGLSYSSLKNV
Method: In brief, cells were harvested, counted, and plated at 50′000 cells/well in a 96-well round-bottom plate. The plate was centrifuged at 350 g for 3 minutes and the cells were resuspended in […] of FACS® buffer (PBS (1×)+2.5% FCS+2 mM EDTA+0.05% NaN₃) containing various concentrations (ranging from 20 to 0.0001 μg/ml) of either anti-mouse IL-1RAP_candidate_1 or Isotype control_2 antibodies. Stained cells were incubated for 30 minutes at 4° C., washed twice with FACS® buffer at 350 g for 3 min and resuspended in 100 μl of a monoclonal anti-mouse IgG PE-Cyanine7 secondary antibody (Biolegend, 407114) diluted 1/200 in FACS® buffer. Cells were then washed twice, and resuspended in 200 μl of FACS® buffer containing SYTOX® Green dead cell stain (THERMO FISHER […]®, S34860) and samples were acquired on a CYTOFLEX® instruments (Beckman Coulter). The cells were gated based on size on FSC vs SSC and analysed for PE-Cyanine7-geometric mean (geomean) fluorescence intensity using FLOWJO® software. Finally, relative geomean fluorescence intensity was calculated by subtracting fluorescence of anti-mouse IL-1RAP_candidate_1 per fluorescence of Isotype control_2. As depicted in FIG. 11, anti-mouse IL-1RAP_candidate_1 antibody recognizes membrane-bound IL-1RAP expressed on NIH-3T3 cell line. […] Each data point is a measurement for a given cell line. […]

[3] = molecular target: T1, Recombinant cynomolgus monkey …; test: SPR

B1: Anti-IL-1RAP-C8-RecC-ES-IgG1LALA (antibody, V domains shown)
VH: QVQLVQSGAEVKKPGSSVKVSCKASGSPAEPYAIQWVRQAPGQGLEWMGYIIPSLGGYDYAQKFQGRVTITADESTSTAYMELSSLRSEDTAVYYCARGQTLYESGRQFDIWGQGTLVTVSS
VL: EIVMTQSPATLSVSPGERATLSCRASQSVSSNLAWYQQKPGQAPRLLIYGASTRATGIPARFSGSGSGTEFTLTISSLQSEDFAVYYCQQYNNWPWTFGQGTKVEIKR
notes: also called ISB 880-C8-recC-ES
Kd [1]: 0.306 nM | koff [1]: 0.000212 s⁻¹ | kon [1]: 692000 M⁻¹ s⁻¹

B2: Anti-IL-1RAP-C3-A3 mmIgG2a LALA (antibody, V domains shown)
VH: EVQLLESGGGLVQPGGSLRLSCAASGFIFSHYGMSWVRQAPGKGLEWVSAISYDGEGTLYADSVKGRFTISRDNSKNTLYLQMNSLRAEDTAVYYCARFRYYTAFDYWGQGTLVTVSS
VL: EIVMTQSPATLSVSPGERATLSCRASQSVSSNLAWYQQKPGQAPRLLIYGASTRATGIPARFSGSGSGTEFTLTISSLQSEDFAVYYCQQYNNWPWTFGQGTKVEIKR
notes: also called anti-IL-1RAP-C3-A3 mouse IgG2a LALA
EC50 (read off the curve) [2]: ~0.01 µg/mL | binding result [3]: no binding
